*1 amine or outer side, *2 acyl side, *3 side chain or, on linkers, in order; H or OH if unused. Where no end group is shown, it is not given here. [ ]: non-standard residue; d: D form. Met(35S) = [35S]-methionine label, C[35S]CC[C@H](N[*:1])C(=O)[*:2]
Biological target: biotinylated hPD-L1 (extracellular domain of human PD-L1, Ala18 to Thr239, expressed in E. coli, non-glycosylated) (human)
Test: [35S]-labeled truncated variant on immobilized hPD-L1, normalized to [35S]-SPAM

binding as compared with full-length SPAM [%] | Binder
< 25 | [Met(35S)]LDHILNKFWILHYAGSGSSGHHHHHHSS [Trunc 3 (SPAM with P2, I3 and F4 deleted)]
< 25 | [Met(35S)]DHILNKFWILHYAGSGSSGHHHHHHSS [Trunc 4 (SPAM with P2, I3, F4 and L5 deleted)]
